Consider 8 molecules from US20260209331A1 (published 2026).

T1: P19 subunit of human IL-23 (IL23p19) (UniProt Q9NPF7 20-189)
T1 chain: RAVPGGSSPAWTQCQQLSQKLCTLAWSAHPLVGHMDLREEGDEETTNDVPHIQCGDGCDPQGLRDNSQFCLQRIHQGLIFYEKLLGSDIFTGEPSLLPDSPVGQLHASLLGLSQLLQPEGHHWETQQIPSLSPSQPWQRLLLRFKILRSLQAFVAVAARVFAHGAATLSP

B1: BsAb #C8 (antibody)
chain 1: not shown
chain 2: EIVLTQSPATLSLSPGERATLSCRASQSVYSYLAWYQQKPGQAPRLLIYDASNRATGIPARFSGSGSGTDFTLTISSLEPEDFAVYYCQQRSNWPPFTFGPGTKVDIKGGGGSGGGGSGGGGSDIQMTQSPSSLSASVGDRVTITCRTSENIYSYLAWYQQKPGKAPKLLIYNAKTLAEGVPSRFSGSGSGTDFTLTISSLQPEDFATYYCQHHYGIPFTFGQGTKVEIKRTVAAPSVFIFPPSDEQLKSGTASVVCLLNNFYPREAKVQWKVDNALQSGNSQESVTEQDSKDSTYSLSSTLTLSKADYEKHKVYACEVTHQGLSSPVTKSFNRGEC
B2: BsAb #D3 (antibody)
chain 1: not shown
chain 2: DIQMTQSPSSLSASVGDRVTITCRTSENIYSYLAWYQQKPGKAPKLLIYNAKTLAEGVPSRFSGSGSGTDFTLTISSLQPEDFATYYCQHHYGIPFTFGQGTKVEIKRTVAAPSVFIFPPSDEQLKSGTASVVCLLNNFYPREAKVQWKVDNALQSGNSQESVTEQDSKDSTYSLSSTLTLSKADYEKHKVYACEVTHQGLSSPVTKSFNRGEC
B3: BsAb #B8 (antibody)
chain 1: not shown
chain 2: B2 chain 2
B4: BsAb #D4 (antibody)
chain 1: not shown
chain 2: B2 chain 2
B5: BsAb #B7 (antibody)
chain 1: not shown
chain 2: B2 chain 2
B6: BsAb #A7 (antibody)
chain 1: not shown
chain 2: B2 chain 2
chain 3: not shown
chain 4: not shown
B7: BsAb #A8 (antibody)
chain 1: EIVLTQSPATLSLSPGERATLSCRASQSVYSYLAWYQQKPGQAPRLLIYDASNRATGIPARFSGSGSGTDFTLTISSLEPEDFAVYYCQQRSNWPPFTFGPGTKVDIKASTKGPSVFPLAPSSKSTSGGTAALGCLVKDYFPEPVTVSWNSGALTSGVHTFPAVLQSSGLYSLSSVVTVPSSSLGTQTYICNVNHKPSNTKVDKKV
chain 2: B2 chain 2
chain 3: not shown
chain 4: not shown
B8: BsAb #A6 (antibody)
chain 1: B7 chain 1
chain 2: not shown
chain 3: not shown
chain 4: not shown

The target of the first test is T1, P19 subunit of human IL-23 (IL23p19). In words: SPR.
B1 registered a Kd of 1.66 nM.

The molecule B2 yielded a Kd of 0.2 nM.

B3 gave a Kd of 0.07 nM.

B4: binding was characterised by a dissociation constant (Kd) of 0.11 nM.

As for B5, binding was put at a Kd of 0.1 nM.

In turn, B6 came in with a dissociation constant (Kd) of 0.08 nM.

With B7, binding was put at a Kd of 0.08 nM.

For the molecule B8, the dissociation constant (Kd) was 0.04 nM.

In another test the target is T2, human TNF alpha (TNFα) (UniProt P01375 77-233). As to the kind of experiment: SPR. (In SPR one partner is held on a chip, and binding of the other changes the refractive index at the surface.)
T2 sequence (P01375 77-233): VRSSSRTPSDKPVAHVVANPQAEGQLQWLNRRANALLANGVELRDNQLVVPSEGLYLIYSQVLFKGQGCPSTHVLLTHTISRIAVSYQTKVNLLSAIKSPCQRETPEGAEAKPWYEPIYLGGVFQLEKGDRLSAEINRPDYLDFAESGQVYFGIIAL
Regarding B1, the Kd came to 0.1 nM.

Molecule B2 came in with a dissociation constant (Kd) of 0.16 nM.

In turn, B3 yielded a Kd of 0.42 nM.

B4 displayed a Kd of 0.49 nM.

As to B5, the Kd was 0.87 nM.

The molecule B6 had a Kd of 0.58 nM.

B7 showed a Kd of 1.09 nM.

As for B8, the affinity, expressed as Kd, was 0.39 nM.

In a further test the target is T2, human TNF alpha (TNFα). As to the kind of experiment: SPR; pre-bound with IL23p19.
The molecule B2 yielded an equilibrium dissociation constant (Kd) of 0.12 nM.

In turn, B3 registered a Kd of 0.41 nM.

B4: binding was put at a Kd of 0.41 nM.

Molecule B5 registered a Kd of 0.93 nM.

One may read the Kd as the concentration at which binding is half-saturated. A higher Kd goes with a looser complex.
